Measurements reported in US20250059271A1 (BARRELMAN BIOSCIENCES, published 2025).
Where a chain is given by its changes, count along the chain named.

Molecular target: T1, dProgastrin-SUMO protein (dog, UniProt P01353 22-104)
T1 construct: Unknown whether the listing entry 103 holds the tag; also called dProg-Sumo protein; dog progastrin His-SUMO protein; not shown: N-terminal His-SUMO tag
T1 sequence: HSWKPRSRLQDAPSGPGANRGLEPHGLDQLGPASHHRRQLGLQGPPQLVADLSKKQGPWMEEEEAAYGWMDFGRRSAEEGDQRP
Assay: ELISA; supernatant 1:2000 on 2 ug/ml dProgastrin-Sumo
Experimental: Deep well ELISA reading of 46 different monoclonal antibodies against 2 μg/ml dProgastrin-Sumo protein antigen versus 2 μg/ml anti rabbit antibodies. Supernatants containing the antibodies were diluted at 1:2000. […] Monoclonal antibodies with strong specificities against the dProgastrin C terminus at low concentrations include the D6 mAb, A3 mAb, and F4 mAb, among others.

B1: dProg-2-D6 mAb (antibody, V domains shown)
VH: QSVKESEGGLFKPTEPLTLTCTVSGFSLSSDNMGWVRQTPGKQLEWIGWIGSSGSAYYARWAKSRSTITRNTNENTVTLKMTSLTAADTATYFCARSGWGSFDIWGPGTLVTVSS
VL: AQVLTQTPSPVSAAVGSTVTISCQSSQSVYSNNRLAWFQQKPGQPPKLLIYLASTLASGVPSRFKGSGSGTQFTLTISEVQCDDAATYYCQGYYSGYIFGFGGGTEVVVKG
notes: Recombinant rabbit monoclonal antibody; also called D6 mAb (C terminus); dprogastrin-2_D6
- OD: 2.02 OD

B2: dProg-2-F4 mAb (antibody, V domains shown)
VH: QSVEESRGGLFKPTEPLTLTCTASGFTISSYHMGWVRQTPGKQLEWIGWIGSSGATYYASWATSRSTITRNTNDNTVTLKMTSLTAADTATYFCARSGWGSFDIWGPGALVTVSS
VL: B1 VL with S9A, P10S, S17G, S22N, S31N, N33D, S78G, G92S, S95N
notes: Recombinant rabbit monoclonal antibody; same entries as dProg-2-A3; also called dprogastrin-2_F4
- OD: 1.99 OD

B3: dProg-2-A3 mAb (antibody, V domains shown)
VH: B2 VH
VL: B1 VL with S9A, P10S, S17G, S22N, S31N, N33D, S78G, G92S, S95N
notes: Recombinant rabbit monoclonal antibody; same entries as dProg-2-F4; Biotinylated when used for detection; also called dprogastrin-2_A3 mAb
- OD: 2.19 OD
